Reference: patent US20260193326A1 (published 2026)

Tests used:
Experiment in all cases: SPR, AAV amine-coupled to CM5 chip;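 also: nanobodies flowed as analyte at seven concentrations spanning 1–100 nM over immobilized AAV (500–800 RU), kinetic constants derived by fitting the binding curves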
AAV8 = molecular target: T1, AAV8 (adeno-associated virus 8)
T1 construct: also called adeno-associated virus serotype 8
Procedure: (§1) AAV was amine-coupled to a CM5 sensor chip at a density of 500-800 response units (RU). Nanobodies were injected at seven concentrations (1-100 nM) with a flow rate of 45 μL/min, and chip regeneration was performed using glycine-HCl (pH 1.5). Binding curves at different nanobody concentrations were used to calculate kinetic parameters (Kₐ, Kd, KD) (Table 2 and FIG. 2).

AAV2 = molecular target: T2, AAV2 (adeno-associated virus 2, UniProt P03135 1-735)
T2 construct: also called adeno-associated virus serotype 2
Procedure: as §1

AAV9 = molecular target: T3, AAV9 (adeno-associated virus 9)
T3 construct: also called adeno-associated virus serotype 9
Procedure: as §1

AAV5 = molecular target: T4, AAV5 (adeno-associated virus 5)
T4 construct: also called adeno-associated virus serotype 5
Procedure: as §1

| Binder | Kd (AAV8) [nM] | koff (AAV8) [s⁻¹] | kon (AAV8) [M⁻¹ s⁻¹] | Kd (AAV2) [nM] | koff (AAV2) [s⁻¹] | kon (AAV2) [M⁻¹ s⁻¹] | Kd (AAV9) [nM] | koff (AAV9) [s⁻¹] | kon (AAV9) [M⁻¹ s⁻¹] | Kd (AAV5) [nM] | koff (AAV5) [s⁻¹] | kon (AAV5) [M⁻¹ s⁻¹] |
| --- | --- | --- | --- | --- | --- | --- | --- | --- | --- | --- | --- | --- |
| A4-071 (VHH) VHH: VQLQESGGGAVQAGGSLRLSCAASGSTFSINTMGWYRQAPGKQRELVATVTRGGSTNYGDFVKGRFTISRDNAKNTVYLQMNTLRPEDTAVYYCHLDEVRQSSWTTSNLWGQGTQVTVSS | 16.4 | 0.00137 | 83300 | 93 | 0.002 | 21500 | 30.9 | 0.00176 | 57000 | 9.46 | 0.00171 | 181000 |
| A4-074 (VHH) VHH: VQLQESGGGLVQSGGSLRLSCAASGSMFSLNTMGWYRQAPGKQRELVATITRGGGTSYADSVKGRFTISRDNAKNTVYLQMNSLRPEDTAVYYCHVDELRQSSWTTSNLWGQGTQVTVSS | 19.2 | 0.00181 | 94100 | 14.3 | 0.00157 | 110000 | 6.03 | 0.00017 | 28200 | 4.64 | 0.00081 | 175000 |
| A4-076 (VHH) VHH: VQLQESGGGLVHSGGSLRLSCAASGSMFSLNTMGWYRQAPGKQRELVATITRGGGTSYADSVKGRFTISRDNAKNTVYLQMNSLRPEDTAVYYCHVDELRQSSWTTSNLWGQGTQVTVSS | 98.1 | 0.00092 | 9380 | 73.6 | 0.00056 | 7610 | 8.16 | 6e-05 | 7360 | 37 | 0.00015 | 4060 |
| A4-072 (VHH) VHH: VQLQESGGGLAQPGGSLRLSCAASGSSFVINTMGWYRQAPGKQREFVATVTRGGSTNYGEFVKGRFTISRDNAKNTVYLQMNSLRPEDTAVYYCHVDELRQSSWTTSNLWGQGTQVTVSS | 27.1 | 0.00044 | 16300 | 3.93 | 0.00021 | 53500 | 1.29 | 0.00018 | 140000 | 3.79 | 0.00038 | 100000 |
| A4-092 (VHH) VHH: VQLQESGGGLVQTGGSLRLSCLASGSIFSINTMGWYRQRAGKQRELVATVTRAGSTNYADSVKGRFTISRDNAKNTVYLQMNSLRPEDTAVYYCHVDEIRESSWTTSNLWGQGTQVTVSS | 0.106 | 2e-05 | 188000 | 1.09 | 6e-05 | 55100 | 1.06 | 9e-05 | 84900 | 0.194 | 1e-05 | 51600 |
| A4-093 (VHH) VHH: VQLQESGGGLVQTGGSLRLSCAASGSIFIINTMGWYRQRAGKQRELVATVTRGGSTNYADSVKGRFTISRDNAKNTVYLQMNTLRPEDTAVYYCHVDELRQSSWTTSNLWGQGTQVTVSS | 11.8 | 0.00196 | 166000 | 46 | 0.00103 | 22400 | 15.5 | 0.0011 | 70800 | 8.21 | 0.00114 | 139000 |
| A4-089 (VHH) VHH: VQLQESGGGLVQPGGSLRLSCAASGSNFSINTMGWYRQAPGKQRELVATFTRAGNTNYADSVKGRFTISRDNGKNTVYLQMNSLRPEDTAVYYCHVDEVRDSSWTTSNLWGQGTQVTVSS | 4.48 | 0.00054 | 121000 | 4.28 | 0.0008 | 187000 | 2.29 | 0.00041 | 179000 | 163 | 0.00099 | 6080 |
| A4-077 (VHH) VHH: VQLQESGGGLVQPGGSLRLSCAASGSMFSINIMGWYRQAPGKQREFVATITRGGSTNYADFVKGRFTISRDNAKNTVYLQMNSLRPEDTAVYYCHVDELRDSSWTTSNLWGQGTQVTVSS | 2.92 | 0.00038 | 130000 | 4.63 | 0.00046 | 99300 | 1.87 | 0.00037 | 198000 | 0.987 | 0.00019 | 193000 |
| A4-088 (VHH) VHH: VQLQESGGGLVQTGGSLRLSCAASGSRFSLNTMGWYRQAPGKQRELVAAVTRGGNTNYGDFVKGRFTISRDNAKNTVYLQMNSLRPEDTAVYYCHVDELRESSWTTSNLWGQGTQVTVSS | 538 | 0.00454 | 8440 | 2420 | 0.00993 | 4100 | 234 | 0.00177 | 7570 | 201 | 0.00146 | 7260 |
